This note sets out measurements from article PMC8210318.

The target in this experiment is replication protein A (RPA) heterotrimer (UniProt P27694).

B1: N-HelQ, N-terminal HelQ fragment (amino acids 1-240) (domain or fragment)
chain: MDECGSRIRRRVSLPKRNRPSLGCIFGAPTAAELVPGDEGKEEEEMVAENRRRKTAGVLPVEVQPLLLSDSPECLVLGGGDTNPDLLRHMPTDRGVGDQPNDSEVDMFGDYDSFTENSFIAQVDDLEQKYMQLPEHKKHATDFATENLCSESIKNKLSITTIGNLTELQTDKHTENQSGYEGVTIEPGADLLYDVPSSQAIYFENLQNSSNDLGDHSMKERDWKSSSHNTVNEELPHNCI
As to B1, the free, unbound DNA liberated from pre-bound RPA (12.5 nM)–fork-2 DNA complex in EMSAs on incremental addition of N-HelQ (0–500 nM) was found to be 40%.
